Here are results for one protein from publication PMC7525497, “Antibodies from Sierra Leonean and Nigerian Lassa fever survivors cross-react with recombinant proteins representing Lassa viruses of divergent lineages” (Scientific Reports, 2020).

The data set deals with the molecule itself. The experiment in a line: SDS-PAGE and western blotting.

B1: LASV Zinc protein (Z), lineage IV (natural protein)
chain: MGNKQAKAPESKDSPRASLIPDATHLGPQFCKSCWFENKGLVECNNHYLCLNCLTLLLSVSNRCPICKMPLPTKLRPSAAPTAPPTGAADSIRPPPYSP
notes: also called Z protein; lineage IV Z
For B1, the binding result was “binds”.
